Laboratory results: patent publication US20040072758A1

Columns and labels:
[1] = molecular target: human neurotensin type 1 receptor (human), P30989
[2] = molecular target: T1, rat neurotensin type 1 receptor (rat), P20789
T1 chain: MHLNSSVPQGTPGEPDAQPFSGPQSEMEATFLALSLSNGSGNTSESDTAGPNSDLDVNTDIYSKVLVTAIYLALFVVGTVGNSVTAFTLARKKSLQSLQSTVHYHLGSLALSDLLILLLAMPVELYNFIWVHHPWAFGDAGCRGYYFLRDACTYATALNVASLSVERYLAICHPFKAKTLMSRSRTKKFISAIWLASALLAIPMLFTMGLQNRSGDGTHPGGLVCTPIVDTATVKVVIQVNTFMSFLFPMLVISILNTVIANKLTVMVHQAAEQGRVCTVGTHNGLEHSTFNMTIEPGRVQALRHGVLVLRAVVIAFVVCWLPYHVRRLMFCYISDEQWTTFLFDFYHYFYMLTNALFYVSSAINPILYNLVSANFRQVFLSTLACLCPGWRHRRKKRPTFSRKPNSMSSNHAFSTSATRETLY

[3] = molecular target: T2, rat neurotensin type 2 receptor (rat), Q63384
T2 chain: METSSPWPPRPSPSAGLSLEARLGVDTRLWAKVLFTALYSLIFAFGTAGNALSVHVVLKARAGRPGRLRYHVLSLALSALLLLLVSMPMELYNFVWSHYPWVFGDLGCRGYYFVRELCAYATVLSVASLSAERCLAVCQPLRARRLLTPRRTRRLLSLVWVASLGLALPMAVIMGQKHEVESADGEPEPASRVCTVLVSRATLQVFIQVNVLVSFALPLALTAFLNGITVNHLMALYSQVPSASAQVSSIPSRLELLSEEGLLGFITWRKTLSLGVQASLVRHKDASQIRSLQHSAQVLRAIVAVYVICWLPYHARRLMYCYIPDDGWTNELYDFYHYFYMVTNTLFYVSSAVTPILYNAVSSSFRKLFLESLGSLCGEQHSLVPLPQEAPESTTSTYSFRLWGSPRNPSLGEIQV

[4] = molecular target: T3, mouse neurotensin type 3 receptor (solubilized) (mouse), Q6PHU5
T3 chain: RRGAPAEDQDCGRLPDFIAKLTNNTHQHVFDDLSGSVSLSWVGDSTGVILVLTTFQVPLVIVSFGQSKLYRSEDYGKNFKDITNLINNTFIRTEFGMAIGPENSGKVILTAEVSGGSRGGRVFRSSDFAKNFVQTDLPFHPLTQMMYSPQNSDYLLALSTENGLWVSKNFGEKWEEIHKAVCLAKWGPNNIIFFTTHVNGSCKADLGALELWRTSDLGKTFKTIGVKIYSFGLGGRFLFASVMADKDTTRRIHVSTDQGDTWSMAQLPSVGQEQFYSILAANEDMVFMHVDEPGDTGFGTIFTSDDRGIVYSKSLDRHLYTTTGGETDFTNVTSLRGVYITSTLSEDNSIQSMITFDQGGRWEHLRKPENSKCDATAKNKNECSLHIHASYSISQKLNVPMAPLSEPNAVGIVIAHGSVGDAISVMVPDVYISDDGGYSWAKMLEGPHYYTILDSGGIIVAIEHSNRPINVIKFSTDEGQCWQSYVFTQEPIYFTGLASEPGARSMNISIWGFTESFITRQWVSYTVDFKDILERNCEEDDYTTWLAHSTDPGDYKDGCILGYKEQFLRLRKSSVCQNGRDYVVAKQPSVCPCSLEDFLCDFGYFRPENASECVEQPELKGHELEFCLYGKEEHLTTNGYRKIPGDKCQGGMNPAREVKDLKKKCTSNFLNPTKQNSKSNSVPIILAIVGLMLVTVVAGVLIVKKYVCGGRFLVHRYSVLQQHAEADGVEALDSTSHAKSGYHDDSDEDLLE

[5] = molecular target: human neurotensin type 1 receptor (human), P30989; assay: competition radioligand binding, reference neurotensin1-13

human neurotensin type 1 receptor (human), P30989, sequence (P30989 whole entry): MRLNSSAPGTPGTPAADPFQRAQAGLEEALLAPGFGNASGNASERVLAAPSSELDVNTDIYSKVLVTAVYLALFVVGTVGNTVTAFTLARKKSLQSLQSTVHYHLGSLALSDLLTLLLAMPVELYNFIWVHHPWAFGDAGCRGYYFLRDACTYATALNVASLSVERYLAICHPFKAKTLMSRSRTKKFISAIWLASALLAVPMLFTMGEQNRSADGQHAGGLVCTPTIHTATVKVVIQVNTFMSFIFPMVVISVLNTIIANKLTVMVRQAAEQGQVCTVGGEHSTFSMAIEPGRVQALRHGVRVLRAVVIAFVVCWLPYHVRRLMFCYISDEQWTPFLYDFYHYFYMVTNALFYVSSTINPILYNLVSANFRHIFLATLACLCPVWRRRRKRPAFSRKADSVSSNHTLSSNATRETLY

B1: contulakin-G (synthetic glycosylated 16-amino acid peptide, Gal(beta1->3)GalNAc(alpha1->) on Thr10) (peptide)
peptide: QSEEGGSNATKKPYIL
modifications: not checked
Work on B1 yielded an IC50 [1] of 960 nM, an IC50 [2] of 524 nM and an IC50 [3] of 730 nM. The IC50 [4] was 250 nM.

B2: non-glycosylated Thr10-contulakin-G (peptide)
peptide: QSEEGGSNATKKPYIL
modifications: not checked
With B2 the fold lower affinity than Neurotensin1-13 [5] was 10 fold, the IC50 [1] was 23 nM and the IC50 [2] was 79 nM. For the same binder, the IC50 [3] was 170 nM and the IC50 [4] was 71 nM.
